From patent publication US20140127211A1 (Pfizer, published 2014)

How the values were obtained:
[1] = biological target: T1, full-length human Notch3 expressed on the cell surface (human, UniProt Q9UM47 40-2321); test: cell-based ELISA, U2OS/hNotch3 cells
T1 construct: whole, on cells; also called hNotch3; U2OS/hNotch3
Description: (§1) U-2 OS cells stably over-expressing human or mouse full length Notch3 protein on cell surface (hereinafter U2OS/hNotch3 and U2OS/mNotch3, respectively) were plated at 50,000 cells/well in 96 well plates (white opaque, BD/VWR) the day before ELISA assay. On the day of the ELISA, culture media was removed from wells and serially diluted (1:3 in blocking buffer) antibody solutions were applied to the plate. Plates were incubated at room temperature for 2 hours before being washed with PBS-Mg/Ca. HRP-conjugated secondary antibody was then applied and incubated with cells for 1 hour as described above for recombinant protein ELISA. Plates were washed with PBS-Mg/Ca before being developed with Pico-Chemiluminescent developing kit (Thermal Scientific), and chemiluminescence measurements were performed per manufacturer's instructions. Data plotting and analyses were performed with Microsoft Excel and Graphpad-Prism software.

[2] = biological target: T1, full-length human Notch3 expressed on …; test: cell-based ELISA, HCC2429 cells; SD 0.053
Description: (§2) On the day of the ELISA, culture media was removed from wells and serially diluted (1:3 in DPBS with calcium chloride and magnesium chloride (Ca/Mg) and 1% BSA) antibody and ADC solutions were applied to the plate. Plates were incubated at room temperature for 2 hours before washed with DPBS with Ca/Mg and 1% BSA. HRP-conjugated secondary antibody was then applied and incubated with cells for 1 hour. Plates were washed with DPBS with Ca/Mg and 1% BSA before being developed with Pico-Chemiluminescent developing kit (Thermal Scientific), and chemiluminescence measurements were performed per manufacturer's instructions. Data plotting and analyses were performed with Microsoft Excel and Graphpad-Prism software.

[3] = biological target: T1, full-length human Notch3 expressed on …; test: cell-based ELISA, MDA-MB-468 cells; SD 0.176
Description: as §2

[4] = biological target: T1, full-length human Notch3 expressed on …; test: cell-based ELISA, U2OS/hNotch3 cells; SD 0.160
Description: as §2

[5] = biological target: T1, full-length human Notch3 expressed on …; test: competition ELISA on U2OS/hNotch3 cells; competitor 0.8 nM biotinylated ch75
Description: (§3) 96 well cell culture plates were seeded with U2OS/hNotch3 cells (cell culture plate, Co-star). […] After incubation for 2 hours, the plates were washed, as described above, and HRP-conjugated streptavidin (Southern Biotech) diluted 1:5000 in blocking buffer was applied. After incubation with streptavidin for 30 minutes, the plates were washed again before being developed with TMB solution for 10 minutes. […] Data plotting and analyses were performed with Microsoft Excel and Graphpad-Prism software.

[6] = biological target: T2, human Notch3 NRR recombinant protein (Notch3 NRR_Avi_His tag) (human); test: SPR (Biacore T100), antibody captured on anti-human IgG-Fc, Notch3 NRR as analyte, 1:1 Langmuir fit
T2 construct: Purified from CHO-PACE cells; the entry includes the C-terminal Avi and His6 tag
T2 chain: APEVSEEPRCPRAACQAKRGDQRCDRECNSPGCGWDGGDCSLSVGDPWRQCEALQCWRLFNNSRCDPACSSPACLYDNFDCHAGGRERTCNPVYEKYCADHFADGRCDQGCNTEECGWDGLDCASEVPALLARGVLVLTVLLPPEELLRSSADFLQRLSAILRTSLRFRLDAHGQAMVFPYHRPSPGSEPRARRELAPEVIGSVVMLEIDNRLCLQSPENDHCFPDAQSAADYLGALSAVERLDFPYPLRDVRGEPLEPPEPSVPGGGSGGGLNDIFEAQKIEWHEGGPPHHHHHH
Description: The kinetic constants of the anti-Notch3 NRR interactions were determined by surface plasmon resonance (Biacore® T100, Biacore Inc., Piscataway, N.J.). Flow cells of a CM5 chip were immobilized with approximately 10,000 response units (RU) of anti-human IgG-Fc (Biacore®) in 10 mM Glycine, pH 5.0 at 10 μl/min for 600 seconds. […] Association of four concentrations of human Notch3 NRR recombinant protein (from 3.7-100 nM) and a zero concentration (running buffer) at 100 μl/min were recorded for 3 minutes in TBS with 1 mM CaCl₂. Dissociation of the complexes was measured for 10 minutes. The surface of the chip was regenerated by injecting 3M MgCl₂ with 3 mM EGTA for 60 seconds at 10 μl/min. Curves obtained after subtraction of the reference and buffer signals were fitted to a 1:1 Langmuir binding model with Biacore® T100 Evaluation Software (Biacore®).

[7] = biological target: T2, human Notch3 NRR recombinant protein …; test: ELISA, recombinant protein, hybridoma supernatant
[8] = biological target: T3, mouse Notch3 NRR recombinant protein (Notch3 NRR_Avi_His tag) (mouse); test: ELISA, recombinant protein, hybridoma supernatant
T3 construct: The entry includes the C-terminal Avi and His tag; S1-cleaved heterodimer as for the human protein
T3 chain: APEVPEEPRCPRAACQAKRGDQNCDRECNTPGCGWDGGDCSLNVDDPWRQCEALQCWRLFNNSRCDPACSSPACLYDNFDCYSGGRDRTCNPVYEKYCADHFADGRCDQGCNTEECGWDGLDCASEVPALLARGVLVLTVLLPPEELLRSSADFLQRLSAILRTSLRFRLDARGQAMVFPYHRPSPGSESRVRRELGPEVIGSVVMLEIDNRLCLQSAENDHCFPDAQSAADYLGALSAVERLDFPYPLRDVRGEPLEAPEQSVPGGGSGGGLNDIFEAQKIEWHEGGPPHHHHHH

[9] = biological target: T1, full-length human Notch3 expressed on …; test: cell-based or functional assay
[10] = biological target: T1, full-length human Notch3 expressed on …; test: cell-based or functional assay; remark: listed apart in the source
[11] = biological target: T1, full-length human Notch3 expressed on …; test: cell-based ELISA, HCC2429 cells; SD 0.034
Description: as §2

[12] = biological target: T1, full-length human Notch3 expressed on …; test: cell-based ELISA, MDA-MB-468 cells; SD 0.046
Description: as §2

[13] = biological target: T1, full-length human Notch3 expressed on …; test: cell-based ELISA, U2OS/hNotch3 cells; SD 0.008
Description: as §2

[14] = biological target: T4, full-length mouse Notch3 expressed on the cell surface (mouse, UniProt Q61982 40-2318); test: cell-based ELISA, U2OS/mNotch3 cells
T4 construct: whole, on cells; Over-expressed on U-2 OS cells; also called U2OS/mNotch3
Description: as §1

[15] = biological target: T1, full-length human Notch3 expressed on …; test: cell-based ELISA, HCC2429 cells; SD 0.009
Description: as §2

[16] = biological target: T1, full-length human Notch3 expressed on …; test: cell-based ELISA, MDA-MB-468 cells; SD 0.054
Description: as §2

[17] = biological target: T1, full-length human Notch3 expressed on …; test: cell-based ELISA, U2OS/hNotch3 cells; SD 0.077
Description: as §2

[18] = biological target: T1, full-length human Notch3 expressed on …; test: competition ELISA on U2OS/hNotch3 cells; competitor 0.8 nM biotinylated ch28
Description: as §3

[19] = biological target: T1, full-length human Notch3 expressed on …; test: cell-based ELISA, HCC2429 cells; SD 0.025
Description: as §2

[20] = biological target: T1, full-length human Notch3 expressed on …; test: cell-based ELISA, MDA-MB-468 cells; SD 0.063
Description: as §2

[21] = biological target: T1, full-length human Notch3 expressed on …; test: cell-based ELISA, U2OS/hNotch3 cells; SD 0.029
Description: as §2

[22] = biological target: T2, human Notch3 NRR recombinant protein …; test: ELISA, plate-coated recombinant protein
Description: Purified human or mouse Notch3 NRR recombinant proteins were coated on CoStar hi-bound 96-well ELISA plates in 100 μl of PBS with Mg/Ca at a concentration of 1 μg/ml overnight. The plates were washed with PBS-Mg/Ca and blocked for 1 hour with 1% BSA in PBS-Mg/Ca. Blocking solution was decanted from the plate and 1:3 serial dilutions of antibodies in blocking solutions were applied to the plate. After incubation at room temperature for 1 hour, plates were washed again with PBS-Mg/Can before HRP (horse radish peroxidase)-conjugated secondary antibody diluted (1:20,000) in blocking buffer was applied. When the primary antibody tested was rat IgG, the secondary antibody was goat anti-rat IgG Fc (Bethyl Biotech); and when the primary antibody was human IgG, the secondary antibody was goat anti-human IgG Fc (Southern Biotech).
After 1 hour incubation with the secondary antibody, plates were washed again, as described above, and TMB substrate solution was added. The developing reaction was allowed for 10 minutes before the stopping solution, 0.18M H₂SO₄, was added.

Notch3-NRR = Notch3-NRR (human); test: ELISA: NRR-Fc protein coated at 1 ug/ml, antibody applied at 5 ug/ml, goat anti-human Fc-HRP, TMB, O.D. 450 nM
Description: After 1 hour of incubation, plates were washed with PBS with 0.9 mM Mg²⁺ and Ca²⁺, before secondary goat anti-human Fc antibody conjugated with HRP were applied and incubated on the plates. After washing again, the plates were developed with TMB and the developing reactions were stopped by adding 0.18M H₂SO₄.

human Notch1 NRR-Fc = biological target: T5, human Notch1 NRR-Fc (human, UniProt P46531 1446-1733, limits assumed); test: as above
T5 construct: domain: NRR region; Made in CHO-PACE cells; not shown: human IgG1 Fc fragment
T5 sequence (looked up): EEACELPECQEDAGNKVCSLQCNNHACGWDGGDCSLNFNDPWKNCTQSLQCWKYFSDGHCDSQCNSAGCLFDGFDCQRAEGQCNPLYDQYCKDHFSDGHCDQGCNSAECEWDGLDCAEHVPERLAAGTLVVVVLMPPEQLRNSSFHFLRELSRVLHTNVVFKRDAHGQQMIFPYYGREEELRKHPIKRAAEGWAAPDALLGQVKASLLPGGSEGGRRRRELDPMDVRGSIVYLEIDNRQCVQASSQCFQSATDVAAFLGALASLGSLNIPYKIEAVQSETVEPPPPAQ

T1 sequence (Q9UM47 40-2321): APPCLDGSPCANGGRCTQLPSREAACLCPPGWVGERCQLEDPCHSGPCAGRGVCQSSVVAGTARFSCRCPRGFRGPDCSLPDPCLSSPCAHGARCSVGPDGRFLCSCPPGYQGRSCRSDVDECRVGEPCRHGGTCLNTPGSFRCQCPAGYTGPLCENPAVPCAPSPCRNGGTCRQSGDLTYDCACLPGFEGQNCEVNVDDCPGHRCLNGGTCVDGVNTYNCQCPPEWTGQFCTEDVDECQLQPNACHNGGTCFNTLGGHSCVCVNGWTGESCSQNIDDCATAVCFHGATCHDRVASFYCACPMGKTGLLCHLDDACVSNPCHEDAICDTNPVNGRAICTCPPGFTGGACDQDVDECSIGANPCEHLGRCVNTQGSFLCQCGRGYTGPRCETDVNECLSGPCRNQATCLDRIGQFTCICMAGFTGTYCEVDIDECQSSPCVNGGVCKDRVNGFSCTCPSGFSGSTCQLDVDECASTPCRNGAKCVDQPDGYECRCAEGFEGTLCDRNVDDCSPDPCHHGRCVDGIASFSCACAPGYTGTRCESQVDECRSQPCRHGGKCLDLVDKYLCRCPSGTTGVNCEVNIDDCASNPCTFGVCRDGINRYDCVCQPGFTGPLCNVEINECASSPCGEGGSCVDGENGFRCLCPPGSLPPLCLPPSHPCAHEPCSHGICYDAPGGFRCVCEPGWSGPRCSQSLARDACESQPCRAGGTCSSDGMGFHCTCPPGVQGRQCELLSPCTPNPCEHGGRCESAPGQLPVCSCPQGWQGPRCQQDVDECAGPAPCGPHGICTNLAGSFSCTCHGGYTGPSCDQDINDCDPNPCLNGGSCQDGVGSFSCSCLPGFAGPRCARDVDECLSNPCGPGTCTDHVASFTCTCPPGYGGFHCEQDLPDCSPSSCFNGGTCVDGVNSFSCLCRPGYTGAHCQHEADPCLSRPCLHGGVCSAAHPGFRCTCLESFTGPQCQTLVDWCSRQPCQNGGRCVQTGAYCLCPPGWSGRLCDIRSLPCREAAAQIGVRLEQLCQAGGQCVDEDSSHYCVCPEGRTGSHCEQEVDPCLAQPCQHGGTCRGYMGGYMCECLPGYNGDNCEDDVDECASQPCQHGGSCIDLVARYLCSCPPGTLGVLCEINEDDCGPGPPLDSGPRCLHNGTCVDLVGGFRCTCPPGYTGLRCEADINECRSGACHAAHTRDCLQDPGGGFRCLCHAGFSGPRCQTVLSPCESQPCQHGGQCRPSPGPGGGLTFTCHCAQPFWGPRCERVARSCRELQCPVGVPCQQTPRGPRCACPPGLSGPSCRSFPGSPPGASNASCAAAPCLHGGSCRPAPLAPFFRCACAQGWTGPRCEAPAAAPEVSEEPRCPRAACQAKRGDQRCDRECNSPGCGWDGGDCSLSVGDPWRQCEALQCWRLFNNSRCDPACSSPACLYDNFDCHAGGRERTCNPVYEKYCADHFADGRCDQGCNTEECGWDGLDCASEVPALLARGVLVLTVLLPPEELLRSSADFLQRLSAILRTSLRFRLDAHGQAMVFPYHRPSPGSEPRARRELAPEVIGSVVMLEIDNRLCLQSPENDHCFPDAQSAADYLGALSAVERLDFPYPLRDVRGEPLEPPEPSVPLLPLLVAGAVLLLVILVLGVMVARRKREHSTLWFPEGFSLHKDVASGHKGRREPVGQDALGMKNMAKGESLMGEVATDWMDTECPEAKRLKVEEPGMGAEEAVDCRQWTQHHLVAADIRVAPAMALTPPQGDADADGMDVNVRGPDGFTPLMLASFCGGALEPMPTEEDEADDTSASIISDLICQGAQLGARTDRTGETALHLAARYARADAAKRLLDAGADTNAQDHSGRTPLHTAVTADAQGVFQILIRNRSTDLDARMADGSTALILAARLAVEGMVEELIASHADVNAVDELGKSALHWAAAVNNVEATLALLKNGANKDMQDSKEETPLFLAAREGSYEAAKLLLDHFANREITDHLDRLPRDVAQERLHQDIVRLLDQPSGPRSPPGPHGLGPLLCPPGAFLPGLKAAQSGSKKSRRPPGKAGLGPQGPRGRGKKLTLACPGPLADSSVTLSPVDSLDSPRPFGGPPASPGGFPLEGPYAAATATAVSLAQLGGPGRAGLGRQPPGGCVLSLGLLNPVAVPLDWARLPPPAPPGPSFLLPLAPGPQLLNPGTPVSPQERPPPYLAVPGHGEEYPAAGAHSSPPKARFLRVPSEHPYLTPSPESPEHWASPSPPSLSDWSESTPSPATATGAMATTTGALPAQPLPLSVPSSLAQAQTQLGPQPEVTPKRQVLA
T4 sequence (Q61982 40-2318): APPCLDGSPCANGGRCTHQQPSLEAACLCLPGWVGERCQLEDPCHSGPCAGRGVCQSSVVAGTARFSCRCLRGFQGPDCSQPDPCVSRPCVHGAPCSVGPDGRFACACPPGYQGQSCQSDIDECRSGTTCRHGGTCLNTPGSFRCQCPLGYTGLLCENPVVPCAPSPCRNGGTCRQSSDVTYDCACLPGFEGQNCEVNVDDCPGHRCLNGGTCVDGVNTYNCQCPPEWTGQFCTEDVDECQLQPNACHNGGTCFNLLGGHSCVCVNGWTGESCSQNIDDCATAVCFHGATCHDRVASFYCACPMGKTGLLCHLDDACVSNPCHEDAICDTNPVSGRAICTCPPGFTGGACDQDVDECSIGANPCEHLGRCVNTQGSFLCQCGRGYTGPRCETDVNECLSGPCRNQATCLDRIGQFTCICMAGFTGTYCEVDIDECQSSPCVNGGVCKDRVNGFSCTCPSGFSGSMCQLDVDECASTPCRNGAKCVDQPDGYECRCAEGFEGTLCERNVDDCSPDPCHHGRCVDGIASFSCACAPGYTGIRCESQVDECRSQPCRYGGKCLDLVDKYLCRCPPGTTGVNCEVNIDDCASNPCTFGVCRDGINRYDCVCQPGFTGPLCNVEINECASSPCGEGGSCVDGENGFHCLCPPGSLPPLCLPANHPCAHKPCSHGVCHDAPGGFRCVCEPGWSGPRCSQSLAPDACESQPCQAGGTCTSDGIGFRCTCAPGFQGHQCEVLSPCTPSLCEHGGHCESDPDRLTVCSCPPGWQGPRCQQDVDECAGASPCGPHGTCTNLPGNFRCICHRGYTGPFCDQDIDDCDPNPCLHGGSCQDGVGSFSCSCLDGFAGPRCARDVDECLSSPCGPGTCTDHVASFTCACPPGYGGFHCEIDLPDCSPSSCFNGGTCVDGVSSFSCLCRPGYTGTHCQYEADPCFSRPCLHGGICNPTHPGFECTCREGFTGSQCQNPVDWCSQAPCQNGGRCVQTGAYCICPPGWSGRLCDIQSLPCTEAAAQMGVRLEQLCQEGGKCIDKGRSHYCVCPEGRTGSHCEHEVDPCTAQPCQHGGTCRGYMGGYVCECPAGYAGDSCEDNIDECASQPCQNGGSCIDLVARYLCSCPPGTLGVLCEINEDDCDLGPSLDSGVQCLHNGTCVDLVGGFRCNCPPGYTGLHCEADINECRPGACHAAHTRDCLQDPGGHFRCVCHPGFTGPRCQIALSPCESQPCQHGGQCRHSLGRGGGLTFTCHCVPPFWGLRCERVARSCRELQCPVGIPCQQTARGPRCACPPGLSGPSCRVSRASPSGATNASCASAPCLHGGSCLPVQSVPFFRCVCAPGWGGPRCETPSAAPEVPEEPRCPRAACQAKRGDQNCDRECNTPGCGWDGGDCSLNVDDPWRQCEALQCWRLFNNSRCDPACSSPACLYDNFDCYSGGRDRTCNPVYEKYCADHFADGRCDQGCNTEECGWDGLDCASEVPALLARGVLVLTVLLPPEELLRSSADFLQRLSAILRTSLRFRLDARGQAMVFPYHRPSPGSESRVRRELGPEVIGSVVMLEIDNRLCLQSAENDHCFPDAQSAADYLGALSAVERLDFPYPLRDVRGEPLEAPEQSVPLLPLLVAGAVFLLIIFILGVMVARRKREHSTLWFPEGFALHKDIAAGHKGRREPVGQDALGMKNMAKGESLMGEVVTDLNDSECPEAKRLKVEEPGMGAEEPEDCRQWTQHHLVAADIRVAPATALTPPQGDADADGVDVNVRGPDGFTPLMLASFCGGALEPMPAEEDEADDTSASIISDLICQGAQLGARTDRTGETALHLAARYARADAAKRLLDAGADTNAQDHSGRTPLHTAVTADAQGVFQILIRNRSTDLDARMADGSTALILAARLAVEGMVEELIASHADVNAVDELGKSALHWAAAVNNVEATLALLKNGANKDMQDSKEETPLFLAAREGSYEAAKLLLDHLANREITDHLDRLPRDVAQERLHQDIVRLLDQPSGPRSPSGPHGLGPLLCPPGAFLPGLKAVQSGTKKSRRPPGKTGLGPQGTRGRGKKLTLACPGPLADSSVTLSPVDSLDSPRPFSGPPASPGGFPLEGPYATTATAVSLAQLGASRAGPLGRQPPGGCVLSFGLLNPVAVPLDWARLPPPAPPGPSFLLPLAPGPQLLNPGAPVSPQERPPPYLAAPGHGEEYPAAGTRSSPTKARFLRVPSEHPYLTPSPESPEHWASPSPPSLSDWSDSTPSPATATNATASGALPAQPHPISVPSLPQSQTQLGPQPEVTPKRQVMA

B1: hu75 (humanized r75 variant VH1.9/VL1.3) (antibody, human IgG1, kappa, V domains shown)
VH: EVQLVESGGGLVQPGGSLRLSCAASGYAFTDYWMTWVRQAPGKGLEWVAEISPNSGGTNFNEKFKGRFTISVDNAKNSLYLQMNSLRAEDTAVYYCARGEIRYNWFAYWGQGTLVTVSS
VL: DIQMTQSPSSLSASVGDRVTITCKASQNVGNNIAWYQQKPGKAPKLLIYYASNRYTGVPSRFSGSGYGTDFTLTISSLQPEDFATYYCQRLYNSPFTFGGGTKVEIKR
notes: Human IgG1/kappa; also called hu75 VH1.9/VL1.3; hu75 VH1.9/V1.3
EC50 [1]: 0.22 nM | EC50 [2]: 0.335 nM | EC50 [3]: 1.28 nM | EC50 [4]: 0.585 nM | EC50 [5]: 1.7 nM | Kd [6]: 9.76 nM

B2: parental rat clone 28 (r28) (antibody, V domains shown)
VH: EVQLVESGGGLVQPGRSLTLSCVASGFTFRDYGMTWIRQAPGKGLTWVAYISSGSNYIYYAEAVKGRFTISRDNAKNTLYLQMTSLRSEDTALYFCTRRGPFVLDAWGQGASVTVSS
VL: DIQMTQSPSFLSASVGDRVTINCKASQSINRYLHWFQQKLGEAPKLLIYNANGLQTGIPSRFSGSGSGTDFTLTISSLQSEDVATYFCLQHNTWPDTFGAGTKLELK
notes: Rat monoclonal antibody from hybridoma, tested as hybridoma supernatant
O.D. 450 nM [7]: ≥ 1 O.D. 450 nM | O.D. 450 nM [8]: ≥ 1 O.D. 450 nM

B3: hu28-vc6780 (Notch3-28-v1010-hG1-(C)_mcValCitPABC-#112) (antibody, human IgG1, kappa, V domains shown)
VH: EVQLVESGGGLVQPGGSLRLSCAASGFTFRDYGMTWVRQAPGKGLEWVAYISSGSNYIYYAEAVKGRFTISRDNAKNSLYLQMNSLRAEDTAVYYCARRGPFVLDAWGQGTLVTVSS
VL: DIQMTQSPSSLSASVGDRVTITCKASQSINRYLHWYQQKPGKAPKLLIYNANGLQTGVPSRFSGSGSGTDFTLTISSLQPEDFATYYCLQHNTWPDTFGGGTKVEIKR
modifications: vc6780 linker-payload on cysteine residues after partial reduction; sites not specified
notes: Antibody-drug conjugate of hu28
IC50 of cytotoxicity (MTS viability), HCC2429 cells, repeat 1 [9]: 148 ng Ab/mL | IC50 of cytotoxicity (MTS viability), HCC2429 cells, repeat 2 [9]: 2050 ng Ab/mL | IC50 of cytotoxicity (MTS viability), MDA-MB-468/hNotch3 cells, repeat 1 [9]: 1.3 ng Ab/mL | IC50 of cytotoxicity (MTS viability), MDA-MB-468/hNotch3 cells, repeat 2 [9]: 3 ng Ab/mL | IC50 of cytotoxicity (MTS viability), OVCAR3 cells [9]: 17 ng Ab/mL | IC50 of cytotoxicity, MDA-MB-468/hNotch3 cells, control siRNA [10]: 2 ng Ab/mL | EC50 [11]: 0.154 nM | EC50 [12]: 0.242 nM | EC50 [13]: 0.236 nM

B4: hu28 (humanized r28 variant VH1.0/VL1.0) (antibody, human IgG1, kappa, V domains shown)
VH: EVQLVESGGGLVQPGGSLRLSCAASGFTFRDYGMTWVRQAPGKGLEWVAYISSGSNYIYYAEAVKGRFTISRDNAKNSLYLQMNSLRAEDTAVYYCARRGPFVLDAWGQGTLVTVSS
VL: DIQMTQSPSSLSASVGDRVTITCKASQSINRYLHWYQQKPGKAPKLLIYNANGLQTGVPSRFSGSGSGTDFTLTISSLQPEDFATYYCLQHNTWPDTFGGGTKVEIKR
notes: Human IgG1/kappa; also called hu28 VH1.0/VL1.0; hu28 VH1.0/V1.0
EC50 [1]: 0.093 nM | EC50 [14]: 0.13 nM | EC50 [15]: 0.132 nM | EC50 [16]: 0.192 nM | EC50 [17]: 0.172 nM | EC50 [18]: 3.1 nM | Kd [6]: 0.9 nM | koff [6]: 0.000347 s⁻¹ | kon [6]: 386000 M⁻¹ s⁻¹

B5: hu28-vc0101 (Notch3-28-v1010-hG1-(C)_mcValCitPABC-#54) (antibody, human IgG1, kappa, V domains shown)
VH: EVQLVESGGGLVQPGGSLRLSCAASGFTFRDYGMTWVRQAPGKGLEWVAYISSGSNYIYYAEAVKGRFTISRDNAKNSLYLQMNSLRAEDTAVYYCARRGPFVLDAWGQGTLVTVSS
VL: DIQMTQSPSSLSASVGDRVTITCKASQSINRYLHWYQQKPGKAPKLLIYNANGLQTGVPSRFSGSGSGTDFTLTISSLQPEDFATYYCLQHNTWPDTFGGGTKVEIKR
modifications: vc0101 linker-payload on cysteine residues after partial reduction; sites not specified
notes: as for B3
IC50 of cytotoxicity (MTS viability), HCC2429 cells, repeat 1 [9]: 473 ng Ab/mL | IC50 of cytotoxicity (MTS viability), HCC2429 cells, repeat 2 [9]: 2940 ng Ab/mL | IC50 of cytotoxicity (MTS viability), MDA-MB-468/hNotch3 cells, repeat 1 [9]: 3.2 ng Ab/mL | IC50 of cytotoxicity (MTS viability), MDA-MB-468/hNotch3 cells, repeat 2 [9]: 3 ng Ab/mL | IC50 of cytotoxicity (MTS viability), MDA-MB-468 cells [9]: 6540 ng Ab/mL | IC50 of cytotoxicity (MTS viability), OVCAR3 cells [9]: 306 ng Ab/mL | IC50 of cytotoxicity (MTS viability), U2OS/hNotch3 cells [9]: 1330 ng Ab/mL | IC50 of cytotoxicity, MDA-MB-468/hNotch3 cells, Notch3 siRNA (reduced Notch3 expression) [10]: 3340 ng Ab/mL | IC50 of cytotoxicity, MDA-MB-468/hNotch3 cells, control siRNA [10]: 3 ng Ab/mL | EC50 [19]: 0.176 nM | EC50 [20]: 0.273 nM | EC50 [21]: 0.266 nM

B6: rat-human chimeric antibody 75 (ch75) (antibody, V domains shown)
VH: QVKLLQSGAALVKPGASVKMSCKASGYAFTDYWVTWVKQSHGKSLEWIGEISPNSGGTNFNEKFKGKATLTVDKSTSTAYMELSRLTSEDSAIYYCTRGEIRYNWFAYWGQGTLVTVSS
VL: NIVMTQSPKSMSISVGDRVTMNCKASQNVGNNIAWYQQKPGQSPKLLIYYASNRYTGVPDRFTGGGYGTDFTLTINSMQAEDAAFYYCQRLYNSPFTFGSGTKLEIK
notes: also called ch75-hIgG1; ch75-hulgG1
EC50 [22]: ≤ 1 nM | EC50 [1]: 0.2 nM | binding result [14]: no binding | EC50 [5]: 1.3 nM | Kd [6]: 17.4 nM | koff [6]: 0.000992 s⁻¹ | kon [6]: 57000 M⁻¹ s⁻¹ | O.D. 450 nM (ELISA, relative binding capacity) (Notch3-NRR): 1.72 | binding result (human Notch1 NRR-Fc): no binding (tested: 5 ug/ml)
